# Data reported in patent publication US20230113734A1 (CELLTRION, published 2023).
# Changes are numbered by the printed parent chain.
# B1: No. 139 antibody (full IgG) (antibody, V domains shown)
# VH: QITLKESGPTLVKPTQTLTLTCSFSGFSLSTSGVGVGWIRQPPGKALEWLALIDWDDNKYHTTSLKTRLTISKDTSKNQVVLTMTNMDPVDTATYYCARIPGFLRYRNRYYYYGMDVWGQGTTVTVSS
# VL: ELVLTQPPSVSAAPGQKVTISCSGSSSNIGNNYVSWYQQLPGTAPKLLIYDNNKRPSGIPDRFSGSKSGTSATLGITGLQTGDEADYYCGTWDSSLSAGVFGGGTELTVL
# notes: also called CT-P59
# B2: No. 266 scFv-Fc antibody fragment (scFv, V domains shown)
# VH: EVQLVESGGGLVQPGGSLRLSCAASGFTVSSNYMTWVRQAPGKGLEWVSVIYSGGSTFYADSVKGRFTISRDNSKNTLYLQMNSLRAEDTAVYYCARDLVVYGMDVWGQGTTVTVSS
# VL: ELELTQPPSVSVAPGKTARITCGGNNIGSKSVHWYQQKPGQAPVLVIYYDSDRPSGIPERFSGSNSGNTATLTISRVEAGDEADYYCQVRDSSSDHPVFGGGTKVTVL
# B3: No. 276 scFv-Fc antibody fragment (scFv, V domains shown)
# VH: B2 VH with E1Q, E6Q
# VL: ELELTQPPSASGAPGQRVTISCSGSSSNIGGSDVGWYQHLPGMAPRLLIYKSNQRPSGVPDRFSASKSGTSASLAISGLQSEDEGDYYCATWDDRLNWVFGGGTKVTVL
# B4: No. 268 scFv-Fc antibody fragment (scFv, V domains shown)
# VH: B2 VH with E1Q, E6Q, L11V, G16R
# VL: ELELTQPPSVSGAPGQRVTISCTGSDSNIGAGYDVHWYQQLPGTAPKLLIYNNNNRPSGVPDRFSGSKSGTSASLAITGLQAEDEADYFCQSSDSGLTGWVFGGGTKLTVL
# Tests used:
# [1] = target: T1, HCoV-HKU1 S1 (HCoV-HKU1, UniProt Q5MQD0 13-760); assay: Octet binding specificity analysis (FIG. 10)
# T1 construct: domain: S1
# T1 sequence: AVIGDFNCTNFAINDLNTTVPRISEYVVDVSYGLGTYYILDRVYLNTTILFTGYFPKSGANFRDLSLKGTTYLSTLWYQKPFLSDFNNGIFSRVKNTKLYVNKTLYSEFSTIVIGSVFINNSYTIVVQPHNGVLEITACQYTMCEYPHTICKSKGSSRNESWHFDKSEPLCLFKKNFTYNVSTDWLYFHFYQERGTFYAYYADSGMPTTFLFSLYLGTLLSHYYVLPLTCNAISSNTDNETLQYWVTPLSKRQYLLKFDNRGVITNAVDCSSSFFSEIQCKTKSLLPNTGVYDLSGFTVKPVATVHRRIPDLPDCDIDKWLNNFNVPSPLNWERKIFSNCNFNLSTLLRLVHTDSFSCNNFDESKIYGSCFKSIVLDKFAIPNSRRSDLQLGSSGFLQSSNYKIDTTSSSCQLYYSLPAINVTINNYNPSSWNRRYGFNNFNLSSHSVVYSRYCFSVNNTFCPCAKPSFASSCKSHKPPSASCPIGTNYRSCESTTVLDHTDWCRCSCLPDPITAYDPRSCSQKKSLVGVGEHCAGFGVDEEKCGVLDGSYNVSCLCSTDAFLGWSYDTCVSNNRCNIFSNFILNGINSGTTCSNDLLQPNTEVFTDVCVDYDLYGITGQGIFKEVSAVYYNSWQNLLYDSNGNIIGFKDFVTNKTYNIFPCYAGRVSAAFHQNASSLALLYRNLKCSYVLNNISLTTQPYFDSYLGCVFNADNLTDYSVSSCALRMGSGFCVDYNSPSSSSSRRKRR
# [2] = target: SARS-CoV-2 S protein (spike protein) (SARS-CoV-2, UniProt P0DTC2 16-1213); assay: ELISA, S proteins on plate
binder,measurement,setting,value
B1,binding result,[1],no binding
B2,Binding ability,[2],0.8 relative to positive control antibody
B3,Binding ability,[2],1 relative to positive control antibody
B4,Binding ability,[2],1.09 relative to positive control antibody
